Patent US20250154500A1 (SEOUL NATIONAL UNIVERSITY R AND DB FOUNDATION, published 2025)

B1: TENT4A (enzyme, human, UniProt Q5XG87 1-792, looked up)
chain: MDPRVAWIQPEQKGPANALWMQIWETSQGVGRGGSGFASYFCLNSPALDTAAAAGAAGRGSGGLGPALPAASPPPPGPTAPAALPPALLTALGPAAEGARRLHKSPSLSSSSSSSSSNAESGTESPGCSSSSSSSASLGRPGGGRGGAFFNFADGAPSAPGTANGHPGPRGPAPAGSPSQHQFHPGRRKRENKASTYGLNYLLSGSRAAALSGGGGPGAQAPRPGTPWKSRAYSPGIQGLHEEIIDFYNFMSPCPEEAAMRREVVKRIETVVKDLWPTADVQIFGSFSTGLYLPTSDIDLVVFGKWERPPLQLLEQALRKHNVAEPCSIKVLDKATVPIIKLTDQETEVKVDISFNMETGVRAAEFIKNYMKKYSLLPYLILVLKQFLLQRDLNEVFTGGISSYSLILMAISFLQLHPRIDARRADENLGMLLVEFFELYGRNFNYLKTGIRIKEGGAYIAKEEIMKAMTSGYRPSMLCIEDPLLPGNDVGRSSYGAMQVKQVFDYAYIVLSHAVSPLARSYPNRDAESTLGRIIKVTQEVIDYRRWIKEKWGSKAHPSPGMDSRIKIKERIATCNGEQTQNREPESPYGQRLTLSLSSPQLLSSGSSASSVSSLSGSDVDSDTPPCTTPSVYQFSLQAPAPLMAGLPTALPMPSGKPQPTTSRTLIMTTNNQTRFTIPPPTLGVAPVPCRQAGVEGTASLKAVHHMSSPAIPSASPNPLSSPHLYHKQHNGMKLSMKGSHGHTQGGGYSSVGSGGVRPPVGNRGHHQYNRTGWRRKKHTHTRDSLPVSLSR
notes: Endogenous protein of HeLa (human) cells; also called PAPD7; TRF4-1
B2: TENT4B (enzyme, human, UniProt Q8NDF8 1-572, looked up)
chain: MYRSGERLLGSHALPAEQRDFLPLETTNNNNNHHQPGAWARRAGSSASSPPSASSSPHPSAAVPAADPADSASGSSNKRKRDNKASGGRAAGGGRADGGGVVYSGTPWKRRNYNQGVVGLHEEISDFYEYMSPRPEEEKMRMEVVNRIESVIKELWPSADVQIFGSFKTGLYLPTSDIDLVVFGKWENLPLWTLEEALRKHKVADEDSVKVLDKATVPIIKLTDSFTEVKVDISFNVQNGVRAADLIKDFTKKYPVLPYLVLVLKQFLLQRDLNEVFTGGIGSYSLFLMAVSFLQLHPREDACIPNTNYGVLLIEFFELYGRHFNYLKTGIRIKDGGSYVAKDEVQKNMLDGYRPSMLYIEDPLQPGNDVGRSSYGAMQVKQAFDYAYVVLSHAVSPIAKYYPNNETESILGRIIRVTDEVATYRDWISKQWGLKNRPEPSCNGPVSSSSATQSSSSDVDSDATPCKTPKQLLCRPSTGNRVGSQDVSLESSQAVGKMQSTQTTNTSNSTNKSQHGSARLFRSSSKGFQGTTQTSHGSLMTNKQHQGKSNNQYYHGKKRKHKRDAPLSDLCR
notes: Endogenous protein of HeLa (human) cells; also called PAPD5; TRF4-2

Target: T1, FLAG-tagged ZCCHC2 ΔN (201-1,178 a.a) (human, UniProt Q9C0B9 201-1178)
T1 construct: Transiently expressed in HeLa ZCCHC2 knockout cells; also called pCK-Flag-ZCCHC2 (201-1178); not shown: FLAG tag and any linker to it; The plasmid name pCK-Flag-ZCCHC2 puts the tag at the N-terminus
T1 sequence (Q9C0B9 201-1178 limits assumed, stated change not applied): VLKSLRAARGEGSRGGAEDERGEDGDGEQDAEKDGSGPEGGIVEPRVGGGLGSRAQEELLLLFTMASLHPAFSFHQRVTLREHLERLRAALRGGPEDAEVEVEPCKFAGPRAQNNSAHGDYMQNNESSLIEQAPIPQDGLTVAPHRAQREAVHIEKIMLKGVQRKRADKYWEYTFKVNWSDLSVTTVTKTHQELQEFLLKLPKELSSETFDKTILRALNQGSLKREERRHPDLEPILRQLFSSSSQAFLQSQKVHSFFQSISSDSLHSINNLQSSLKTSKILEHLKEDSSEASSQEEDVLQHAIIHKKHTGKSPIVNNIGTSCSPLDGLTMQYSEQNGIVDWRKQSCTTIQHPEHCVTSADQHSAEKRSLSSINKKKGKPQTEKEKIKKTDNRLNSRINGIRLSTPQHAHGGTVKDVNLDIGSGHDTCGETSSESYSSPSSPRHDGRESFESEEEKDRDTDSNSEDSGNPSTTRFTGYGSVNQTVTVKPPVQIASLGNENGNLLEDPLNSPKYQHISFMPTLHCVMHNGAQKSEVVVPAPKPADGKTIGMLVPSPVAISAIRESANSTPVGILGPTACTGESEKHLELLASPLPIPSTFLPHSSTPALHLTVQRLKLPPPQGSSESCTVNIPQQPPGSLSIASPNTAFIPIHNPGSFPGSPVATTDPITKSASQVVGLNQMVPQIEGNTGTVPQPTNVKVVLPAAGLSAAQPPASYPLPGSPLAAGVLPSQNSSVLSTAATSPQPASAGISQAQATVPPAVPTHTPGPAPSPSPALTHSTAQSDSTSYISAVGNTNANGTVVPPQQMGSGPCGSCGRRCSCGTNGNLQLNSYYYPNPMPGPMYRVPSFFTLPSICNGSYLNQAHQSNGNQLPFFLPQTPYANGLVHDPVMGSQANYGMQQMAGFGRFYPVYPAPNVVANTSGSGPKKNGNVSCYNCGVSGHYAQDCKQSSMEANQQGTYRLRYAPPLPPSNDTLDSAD
Experiment: anti-FLAG co-immunoprecipitation from HeLa ZCCHC2 KO cells, western blot
Experimental: Data are normalized against the value of the wild-type sample and represented as mean±SEM (n=3). * indicates p<0.05, with a two-sided Student's t-test performed. […] Full-length ZCCHC2 protein and its truncated mutants (ΔC, ΔN) were compared for their ability to interact with TENT4 proteins. TENT4A and GAPDH were detected on the same gel, whereas the other proteins were analyzed on separate gels with the same amounts of samples. Cross-reacting bands are indicated by asterisks.
For co-IP experiment, parental cells and TENT4 dKO cells on a 150 μl plate were lysed on ice for 20 minutes using Buffer A (100 mM KCl, 0.1 mM EDTA, 20 mM HEPES [pH 7.5], 0.4% NP-40, 10% glycerol) containing 1 mM DL-Dithiothreitol (DTT), 1× protease inhibitor, and RNase A (Thermo, EN0531), and then centrifuged. For immunoprecipitation, 12.5 μg of antibody (NMG, anti-TENT4A, and anti-TENT4B) conjugated to protein A and G sepharose beads (1:1 mixture, total 20 μl) was used with 1 mg of the lysates. After incubation at 4° C. for 2 hours, the beads were washed, boiled in 20 μl of 2×SDS buffer, and loaded onto a 4-12% (Novex) SDS-PAGE gel with the ladder (Thermo, 26616 and 26619). For domain co-IP experiment, full-length ZCCHC2, truncated construct of ZCCHC2, and negative construct having FLAG tag were transfected in ZCCHC2KO cells, and the cells were lysed within 2 days. […]

| Binder | binding result |
| --- | --- |
| B1 | no binding |
| B2 | no binding |
